T1: hTRF2-DBD K447R (Homo sapiens, UniProt Q15554 SEQ:1-63)
T1 chain: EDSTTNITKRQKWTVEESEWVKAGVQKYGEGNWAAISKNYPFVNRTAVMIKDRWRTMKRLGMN

T2: hTRF2-DBD R496K (Homo sapiens, UniProt Q15554 SEQ:1-63)
T2 chain: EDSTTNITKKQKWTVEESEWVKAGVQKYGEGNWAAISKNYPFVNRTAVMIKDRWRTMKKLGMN

T3: hTRF2-DBD A484S (Homo sapiens, UniProt Q15554 SEQ:1-63)
T3 chain: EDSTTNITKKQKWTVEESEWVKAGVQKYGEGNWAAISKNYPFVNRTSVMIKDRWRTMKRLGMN

T4: hTRF2-DBD A471S (Homo sapiens, UniProt Q15554 SEQ:1-63)
T4 chain: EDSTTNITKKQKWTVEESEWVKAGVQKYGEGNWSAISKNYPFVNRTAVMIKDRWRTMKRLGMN

T5: hTRF2-DBD qm (K447R/A471S/A484S/R496K) (Homo sapiens, UniProt Q15554 SEQ:1-63)
T5 chain: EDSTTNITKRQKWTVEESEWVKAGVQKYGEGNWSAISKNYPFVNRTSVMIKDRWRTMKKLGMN

T6: hTRF2-DBD dm (A471S/A484S) (Homo sapiens, UniProt Q15554 SEQ:1-63)
T6 chain: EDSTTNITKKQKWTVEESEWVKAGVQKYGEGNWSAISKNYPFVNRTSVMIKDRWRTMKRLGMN


How the values were obtained:
hTRF2-DBD K447R = molecular target: T1, hTRF2-DBD K447R; experiment: SPR; pH 6.8, 180 mM KCl, 293 K; conditions: tags: N-terminal Met added; untagged, E. coli BL21(DE3) pET23b; label: biotin (13mer on SA chip)
Procedure: (§1) The same experiments were performed on the six mutants of hTRF2 under the same conditions. […] Further, the six mutants were analyzed by SPR for the three DNAs T3G, G7C and T9G, as well as tr13. As a result, Kd values for T3G are about 7 times higher than those values for tr13; and Kd values for T9G are about 100 times higher than those values for tr13. […] Since C7′ is changed to G7′ in G7C, Asp489 which recognizes C7′ has become incapable of recognizing DNA. Thus, interaction with DNA is assumed to be non-specific. Although the affinity to T9G is about 10 times lower than the affinity to G7C, differences in Kd values of individual mutants for DNA show relatively similar tendencies to those observed in tr13 and T3G. It is believed that the binding mode between the major groove and recognition helix is not changed and that only the affinity to T9G is merely very low.
(§2) Affinity analysis was performed using a Biacore 3000 instrument. All experiments were performed at 293 K using a buffer containing 10 mM HEPES-KOH, 3 mM EDTA, 180 mM KCl and 0.003% Triton X-100 (v/v) (pH 6.8). Flow cells of an SA streptavidin sensor chip were coated with the 13mer oligonucleotide biotinylated. The proteins were injected into flow cells over 3-5 min at a flow rate of 10 μL/min until the reaction of protein with DNA had been equilibrated. Bound proteins were removed by a 30-sec wash with 2M KCl.

hTRF2-DBD R496K = molecular target: T2, hTRF2-DBD R496K; experiment: SPR; pH 6.8, 180 mM KCl, 293 K; conditions: tags: N-terminal Met added; untagged, E. coli BL21(DE3) pET23b; label: biotin (13mer on SA chip)
Procedure: as §1, §2

hTRF2-DBD A484S = molecular target: T3, hTRF2-DBD A484S; experiment: SPR; pH 6.8, 180 mM KCl, 293 K; conditions: tags: N-terminal Met added; untagged, E. coli BL21(DE3) pET23b; label: biotin (13mer on SA chip)
Procedure: as §1, §2

hTRF2-DBD A471S = molecular target: T4, hTRF2-DBD A471S; experiment: SPR; pH 6.8, 180 mM KCl, 293 K; conditions: tags: N-terminal Met added; untagged, E. coli BL21(DE3) pET23b; label: biotin (13mer on SA chip)
Procedure: as §1, §2

[1] = molecular target: T7, hTRF1 (DNA-binding domain) (Homo sapiens, UniProt P54274 P54274:371-439); experiment: SPR; pH 6.8, 180 mM KCl, 293 K; conditions: label: biotin (13mer on SA chip)
T7 sequence (P54274 371-439, one chain of several): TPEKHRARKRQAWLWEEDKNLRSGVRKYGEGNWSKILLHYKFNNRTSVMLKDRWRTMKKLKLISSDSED
Procedure: as §1, §2

[2] = molecular target: T5, hTRF2-DBD qm (K447R/A471S/A484S/R496K); experiment: SPR; pH 6.8, 180 mM KCl, 293 K; conditions: tags: N-terminal Met added; untagged, E. coli BL21(DE3) pET23b; label: biotin (13mer on SA chip)
Procedure: as §1, §2

[3] = molecular target: T6, hTRF2-DBD dm (A471S/A484S); experiment: SPR; pH 6.8, 180 mM KCl, 293 K; conditions: tags: N-terminal Met added; untagged, E. coli BL21(DE3) pET23b; label: biotin (13mer on SA chip)
Procedure: as §1, §2

hTRF2-DBD wild type [4] = molecular target: T8, hTRF2-DBD wild type (Homo sapiens, UniProt Q15554 SEQ:1-63); experiment: SPR; pH 6.8, 180 mM KCl, 293 K; conditions: tags: N-terminal Met added; untagged, E. coli BL21(DE3) pET23b; label: biotin (13mer on SA chip)
Procedure: as §1, §2

[5] = molecular target: T7, hTRF1 (DNA-binding domain); experiment: SPR; 10 mM HEPES-KOH pH 6.8, 3 mM EDTA, 180 mM KCl, 0.003% Triton X-100, 293 K; conditions: label: biotin (13mer on SA chip)
Procedure: The same experiments were performed on hTRF1 under the same conditions.
as §2, with “KCl. An equilibrium dissociate constant (Kd) was calculated from a Scatchard analysis of the RU values in the equilibrium region of the sensorgram at each analyte concentration. The affinity data were analyzed using BIAevaluation ver. 3.2 software.” for “KCl.”

hTRF2-DBD wild type [6] = molecular target: T8, hTRF2-DBD wild type; experiment: SPR; pH 6.8, 180 mM KCl, 293 K; 1:1 complex also shown by NMR titration and structure; conditions: tags: N-terminal Met added; untagged, E. coli BL21(DE3) pET23b; label: biotin (13mer on SA chip)
Procedure: as §1, §2

Binder	Kd (hTRF2-DBD K447R) [µM]	Kd (hTRF2-DBD R496K) [µM]	Kd (hTRF2-DBD A484S) [µM]	Kd (hTRF2-DBD A471S) [µM]	Kd [1] [µM]	Kd [2] [µM]	Kd [3] [µM]	Kd (hTRF2-DBD wild type [4]) [µM]	Kd [5] [µM]	Kd (hTRF2-DBD wild type [6]) [µM]
T9G (dsDNA) DNA 1: GTTAGGGTGAGGG DNA 2: CCCTCACCCTAAC	37	114	69.1	44.2	3.14	26.5	47.9	110		
G7C (dsDNA) DNA 1: GTTAGGCTTAGGG DNA 2: CCCTAAGCCTAAC	24.5	87	50.7	32.3	12.2		33.8			
T3G (dsDNA) DNA 1: GTGAGGGTTAGGG DNA 2: CCCTAACCCTCAC	2.19	4.92	4.03	3.07	0.795		2.58	5.94		
tr13 (dsDNA) DNA 1: GTTAGGGTTAGGG DNA 2: CCCTAACCCTAAC	0.297	0.764	0.55	0.482		0.196	0.385		0.186	0.748
